In publication PMC5074521, “Dom34 Links Translation to Protein O-mannosylation”:

B1: PMT1 5'-UTR RNA (full) (structured_RNA)
RNA: GGCAAGAUUCUUUUUCAAGAUUUUUCAUUUUUACAACAACAACAACAACCACCACAACCACAACUAUAAACAAUUGAUAUAGCAUUAUCUUUUAAGAUUAUUGAAUAAAGGUCAAUUUAUAGCGCCCCCCCUCACUCCACCUCCUACCGUCUUUCUUUCACGCAACUAAAACAAAUUUUUAUAUUUUUAUUUUUAUUUUUAUUUUAGUUUCCCAUUCAAUAGAUC

How the values were obtained:
[1] = target: T1, Dom34 (Candida albicans, UniProt A0A1D8PSD0 1-393); experiment: EMSA; 400 nM protein, 20 nM RNA; complex I, plus II with 0.05% lauryl sarcosinate; UTR/6S EMSA: 10 mM Tris-HCl pH 8.0, 100 mM NaCl, 30 C 10 min, then heparin 50 ng/ul 10 min, native 5% PAGE (legend 6%); oligo EMSA: LightShift RNA EMSA kit, room temperature 20 min; footprint: RNase 1 min at 37 C; settings: protein: recombinant; tags: C-terminal His6; label: 3'-biotin; single strand
[2] = target: Dom34 N317A (Candida albicans, UniProt A0A1D8PSD0 1-393, N317A); experiment: EMSA; 400 nM protein, 20 nM RNA; as wild type; UTR/6S EMSA: 10 mM Tris-HCl pH 8.0, 100 mM NaCl, 30 C 10 min, then heparin 50 ng/ul 10 min, native 5% PAGE (legend 6%); oligo EMSA: LightShift RNA EMSA kit, room temperature 20 min; footprint: RNase 1 min at 37 C; settings: protein: recombinant; tags: C-terminal His6; label: 3'-biotin; single strand
[3] = target: T2, Dom34 E21A (Candida albicans, UniProt A0A1D8PSD0 1-393, E21A); experiment: EMSA; 400 nM protein, 20 nM RNA; enhanced vs wild type; UTR/6S EMSA: 10 mM Tris-HCl pH 8.0, 100 mM NaCl, 30 C 10 min, then heparin 50 ng/ul 10 min, native 5% PAGE (legend 6%); oligo EMSA: LightShift RNA EMSA kit, room temperature 20 min; footprint: RNase 1 min at 37 C; settings: protein: recombinant; tags: C-terminal His6; label: 3'-biotin; single strand
[4] = target: T1, Dom34; experiment: EMSA; heparin challenge; binding visible above 0.3 uM, no free RNA at 2.5 uM (bound or degraded); lower affinity than E21A; UTR/6S EMSA: 10 mM Tris-HCl pH 8.0, 100 mM NaCl, 30 C 10 min, then heparin 50 ng/ul 10 min, native 5% PAGE (legend 6%); oligo EMSA: LightShift RNA EMSA kit, room temperature 20 min; footprint: RNase 1 min at 37 C; settings: protein: recombinant; tags: C-terminal His6; label: 3'-32P-pCp; single strand with predicted paired regions
[5] = target: T2, Dom34 E21A; experiment: EMSA; heparin challenge 50 ng/ul; apparent KD; UTR/6S EMSA: 10 mM Tris-HCl pH 8.0, 100 mM NaCl, 30 C 10 min, then heparin 50 ng/ul 10 min, native 5% PAGE (legend 6%); oligo EMSA: LightShift RNA EMSA kit, room temperature 20 min; footprint: RNase 1 min at 37 C; settings: protein: recombinant; tags: C-terminal His6; label: 3'-32P-pCp; single strand with predicted paired regions

Binder	binding result [1]	binding result [2]	binding result [3]	binding result [4]	Kd [5] [nM]
ACAACAACAACAACAACCACCACAACCACAACUAUAAACAAU (ssRNA) [PMT1 5'-UTR RNA oligonucleotide]	binds	binds	binds		
B1				binds	~100
